Experimental data: US20100040635A1
Positions count from the first letter of the chain named.

B1: Antibody 4 (antibody, V domains shown)
VH: QVQLQESGPGLVKPSETLSLTCTVSGYSFDSGYYWGWLRQPPGKGLEWIGSIYHSRNTYYNPSLKSRVTISVDTSKNQFSLQLSSVTAADTAVYYCARGTWYSSNLRYWFDPWGKGTL
VL: NFMLTQPHSVSESPGKTVTISCTGSGGNIARNYVQWYQQRPGSAPVTVILEDDKRPSGIPDRFSGSIDRSSNSASLTISGLRTEDEALYYCQSYDDSDLVVFGGGTKLT
B2: Antibody 2 (antibody, V domains shown)
VH: QVQLVQSGAEVKKPGSSVKVSCKTSGGTFSSYAVTWVRQAPGQGLEWMGGIIGMFGTTNYAQKFQGRVTITADELTSTAYMELSSLRSEDTAVYYCARGSYYYESSLDYWGRGTL
VL: ETTLTQSPATLSVSPGERATLSCRASQSVSRNLAWYQQKPGQAPRLLIYGASSRATGIPDRFSGSGSGTDFTLTISRLEPEDFAVYYCQQYGSSSITFGQGTRLEIKR
B3: Antibody 3 (antibody, V domains shown)
V domain 1: B2 VH with Q1E, G50A, E89D, R112K
V domain 2: QSVLTQPPSVSGAPGQRVTISCGGSRSNIGAGYDVHWYQQFPGTAPKVVIYGNNNRPSGVPDRFSGSKSGTSASLAITGLQAEDEANYYCQSYDTNLGGSIFGGGTQVTVL
B4: Antibody 1 (antibody, V domains shown)
VH: B2 VH with K19R, V68L, L75M, S105T, S106T
VL: ETTLTQSPGTLSLSPGERATLSCRVSQSVSSNYLAWYQQKPGQAPRLLIYGASSRATGIPDRFSGSGSGTDFTLTISRLEPEDFAVYYCQQYGTSPRAFGHGTKVEIKR

What was measured:
[1] = target: H1 hemagglutinin of influenza A/New Caledonia/20/99 (H1N1) (influenza A virus H1N1 A/New Caledonia/20/99); test: cell-based or functional assay
[2] = target: H5 hemagglutinin of influenza A/Indonesia/5/05 (H5N1) (influenza A virus H5N1 A/Indonesia/5/05); test: cell-based or functional assay
[3] = target: H5 hemagglutinin of influenza A/Turkey/65596/06 (H5N1) (influenza A virus H5N1 A/Turkey/65596/06); test: cell-based or functional assay
[4] = target: H5 hemagglutinin of influenza A/Vietnam/1203/04 (H5N1) (influenza A virus H5N1 A/Vietnam/1203/04); test: cell-based or functional assay
[5] = target: H5 hemagglutinin of influenza A/Vietnam/1203/04 (H5N1) (influenza A virus H5N1 A/Vietnam/1203/04)

Row | Binder | Minimum inhibitory concentrations required to neutralize virus [1] | Minimum inhibitory concentrations required to neutralize virus [2] | Minimum inhibitory concentrations required to neutralize virus [3] | Minimum inhibitory concentrations required to neutralize virus [4] | Neutralization (MIC), H5N1 Vietnam 1203 virus, microneutralization [5]
1 | B1 | > 333 µg/mL | > 333 µg/mL |  |  | 
2 | B2 |  | 27 µg/mL | 108 µg/mL | 63 µg/mL | 188 µg/mL
3 | B3 |  | 16 µg/mL | 31 µg/mL |  | 175 µg/mL
4 | B4 | 9 µg/mL | 9.3 µg/mL | 9.3 µg/mL |  | 
